Test results published in PMC9482650, “Quantitative fragmentomics allow affinity mapping of interactomes” (Nature Communications, 2022).

Experiments:
Assay in all cases: holdup assay
Set-up in all cases: key: below the threshold = too weak to quantify, mostly under pKd 3.1 to 4
PDZD4, Q76G19 = target: T1, PDZD4, Q76G19
T1 sequence (Q76G19 125-224, limits assumed, looked up): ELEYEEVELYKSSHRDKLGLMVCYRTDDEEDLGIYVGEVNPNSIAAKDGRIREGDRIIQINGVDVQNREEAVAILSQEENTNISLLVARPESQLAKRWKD

TJP3_1, O95049 = target: T2, TJP3_1, O95049
T2 sequence (O95049 6-103, limits assumed, looked up): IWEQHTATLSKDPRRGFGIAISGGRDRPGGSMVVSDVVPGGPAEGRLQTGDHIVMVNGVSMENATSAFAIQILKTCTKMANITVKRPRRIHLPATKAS

GRIP1_1, Q9Y3R0 = target: T3, GRIP1_1, Q9Y3R0
T3 sequence (Q9Y3R0 48-146, limits assumed, looked up): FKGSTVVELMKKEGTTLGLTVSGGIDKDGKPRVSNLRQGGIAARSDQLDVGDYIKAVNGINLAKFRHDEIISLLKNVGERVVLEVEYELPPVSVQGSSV

LIMK1, P53667 = target: LIMK1, P53667
CNKSR3, Q6P9H4 = target: CNKSR3, Q6P9H4
MPDZ_6, O75970 = target: T4, MPDZ_6, O75970
T4 sequence (O75970 1003-1099, limits assumed, looked up): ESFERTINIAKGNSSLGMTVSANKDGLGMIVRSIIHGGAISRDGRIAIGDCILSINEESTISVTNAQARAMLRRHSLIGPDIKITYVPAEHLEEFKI

Inadl_7, Q8NI35 = target: Inadl_7, Q8NI35
DVL2, O14641 = target: DVL2, O14641
GIPC1, O14908 = target: T5, GIPC1, O14908
T5 sequence (O14908 128-223, limits assumed, looked up): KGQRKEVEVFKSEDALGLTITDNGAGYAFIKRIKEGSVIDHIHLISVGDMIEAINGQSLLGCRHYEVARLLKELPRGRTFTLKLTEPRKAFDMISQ

PDZD7_2, Q9H5P4 = target: T6, PDZD7_2, Q9H5P4
T6 sequence (Q9H5P4 205-303, limits assumed, looked up): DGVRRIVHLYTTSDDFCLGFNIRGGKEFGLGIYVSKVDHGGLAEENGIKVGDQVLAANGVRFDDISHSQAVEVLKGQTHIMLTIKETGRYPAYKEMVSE

PTPN4, P29074 = target: T7, PTPN4, P29074
T7 sequence (P29074 512-599, limits assumed, looked up): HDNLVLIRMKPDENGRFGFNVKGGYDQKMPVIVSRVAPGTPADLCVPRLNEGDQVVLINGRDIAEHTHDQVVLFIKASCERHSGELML

APBA3_2, O96018 = target: T8, APBA3_2, O96018
T8 sequence (O96018 480-570, limits assumed, looked up): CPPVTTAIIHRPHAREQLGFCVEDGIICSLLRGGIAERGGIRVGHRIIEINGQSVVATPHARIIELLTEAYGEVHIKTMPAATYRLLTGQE

LNX2_4, Q8N448 = target: T9, LNX2_4, Q8N448
T9 sequence (Q8N448 595-690, limits assumed, looked up): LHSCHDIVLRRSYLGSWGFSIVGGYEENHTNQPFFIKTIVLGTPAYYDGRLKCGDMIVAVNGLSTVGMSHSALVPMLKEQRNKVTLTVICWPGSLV

MPDZ_3, O75970 = target: T10, MPDZ_3, O75970
T10 sequence (O75970 372-473, limits assumed, looked up): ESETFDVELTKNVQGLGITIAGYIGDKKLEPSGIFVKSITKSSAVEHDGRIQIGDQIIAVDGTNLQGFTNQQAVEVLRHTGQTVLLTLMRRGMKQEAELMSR

MLLT4, P55196 = target: T11, MLLT4, P55196
T11 sequence (P55196 1002-1103, limits assumed, looked up): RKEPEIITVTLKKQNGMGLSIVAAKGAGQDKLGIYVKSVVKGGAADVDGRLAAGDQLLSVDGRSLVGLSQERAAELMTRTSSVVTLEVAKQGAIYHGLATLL

GRIP2_2, Q9C0E4 = target: GRIP2_2, Q9C0E4
GIPC3, Q8TF64 = target: GIPC3, Q8TF64
USH1C_3, Q9Y6N9 = target: T12, USH1C_3, Q9Y6N9
T12 sequence (Q9Y6N9 447-547, limits assumed, looked up): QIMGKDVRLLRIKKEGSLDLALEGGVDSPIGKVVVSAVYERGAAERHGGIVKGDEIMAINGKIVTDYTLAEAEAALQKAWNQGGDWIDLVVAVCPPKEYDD

MPDZ_2, O75970 = target: T13, MPDZ_2, O75970
T13 sequence (O75970 252-347, limits assumed, looked up): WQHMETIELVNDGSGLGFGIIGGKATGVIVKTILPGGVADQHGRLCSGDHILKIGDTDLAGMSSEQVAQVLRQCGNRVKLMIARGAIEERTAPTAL

LMO7, Q8WWI1 = target: LMO7, Q8WWI1
LNX1_4, Q8TBB1 = target: LNX1_4, Q8TBB1
MAGI1_4, Q96QZ7 = target: MAGI1_4, Q96QZ7
CARD14, Q9BXL6 = target: CARD14, Q9BXL6
[1] = plain residues with an end cap or a label only (N-terminal biotin on a linker: (peg)3)
[2] = modified: phospho on S at position -3 from the C-terminal residue
[3] = modified: acetyl on K at position -1 from the C-terminal residue

Sequence of Inadl_7, Q8NI35 (Q8NI35 1219-1332): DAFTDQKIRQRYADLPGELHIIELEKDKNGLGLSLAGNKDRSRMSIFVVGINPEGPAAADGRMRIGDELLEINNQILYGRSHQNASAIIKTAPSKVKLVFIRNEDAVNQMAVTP
Sequence of DVL2, O14641 (O14641 260-359): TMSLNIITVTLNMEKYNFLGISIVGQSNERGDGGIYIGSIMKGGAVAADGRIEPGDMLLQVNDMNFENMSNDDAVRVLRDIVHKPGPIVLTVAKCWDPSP
Sequence of LMO7, Q8WWI1 (Q8WWI1 1037-1138): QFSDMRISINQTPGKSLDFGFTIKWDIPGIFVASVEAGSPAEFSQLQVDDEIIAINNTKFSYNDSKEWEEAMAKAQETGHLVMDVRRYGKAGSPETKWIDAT
Sequence of GIPC3, Q8TF64 (Q8TF64 107-202): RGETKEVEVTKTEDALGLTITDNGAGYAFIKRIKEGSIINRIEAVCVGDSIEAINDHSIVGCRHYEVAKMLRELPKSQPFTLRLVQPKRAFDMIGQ
Sequence of LNX1_4, Q8TBB1 (Q8TBB1 631-726): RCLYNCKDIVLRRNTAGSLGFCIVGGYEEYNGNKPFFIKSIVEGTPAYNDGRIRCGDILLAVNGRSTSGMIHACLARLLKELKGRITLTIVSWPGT
Sequence of LIMK1, P53667 (P53667 155-268): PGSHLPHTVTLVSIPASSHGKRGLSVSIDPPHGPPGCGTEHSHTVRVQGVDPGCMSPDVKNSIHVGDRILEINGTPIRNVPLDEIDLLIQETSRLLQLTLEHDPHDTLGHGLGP
Sequence of GRIP2_2, Q9C0E4 (Q9C0E4 137-245): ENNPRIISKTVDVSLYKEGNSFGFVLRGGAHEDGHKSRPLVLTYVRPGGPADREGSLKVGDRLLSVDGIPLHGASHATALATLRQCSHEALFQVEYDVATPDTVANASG
Sequence of CNKSR3, Q6P9H4 (Q6P9H4 203-303): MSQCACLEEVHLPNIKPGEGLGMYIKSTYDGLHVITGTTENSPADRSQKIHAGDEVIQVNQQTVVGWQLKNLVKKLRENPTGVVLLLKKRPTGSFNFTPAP
Sequence of CARD14, Q9BXL6 (Q9BXL6 558-663): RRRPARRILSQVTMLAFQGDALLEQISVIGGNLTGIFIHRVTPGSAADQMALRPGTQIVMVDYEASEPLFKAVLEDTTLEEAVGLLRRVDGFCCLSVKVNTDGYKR
Sequence of MAGI1_4, Q96QZ7 (Q96QZ7 other isoform, or with tags, fused parts or gaps): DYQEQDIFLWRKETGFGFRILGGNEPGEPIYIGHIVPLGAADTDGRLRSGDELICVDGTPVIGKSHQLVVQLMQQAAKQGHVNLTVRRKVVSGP

YDEPTTTTSVPL [SARS-Cov2-3a, P0DTC3] was tested, and the pKd (PDZD4, Q76G19; [1]) was “below the threshold”, the pKd (TJP3_1, O95049; [1]) was “below the threshold” and the pKd (GRIP1_1, Q9Y3R0; [1]) was “below the threshold”. For the same binder, the pKd (LIMK1, P53667; [1]) was “below the threshold”, the pKd (CNKSR3, Q6P9H4; [1]) was “below the threshold” and the pKd (MPDZ_6, O75970; [1]) was “below the threshold”. For the same binder, the pKd (Inadl_7, Q8NI35; [1]) was “below the threshold”, the pKd (DVL2, O14641; [1]) was “below the threshold” and the pKd (GIPC1, O14908; [1]) was “below the threshold”. The pKd (PDZD7_2, Q9H5P4; [1]) was “below the threshold”, the pKd (PTPN4, P29074; [1]) was “below the threshold” and the pKd (APBA3_2, O96018; [1]) was “below the threshold”. For the same binder, the pKd (LNX2_4, Q8N448; [1]) was “below the threshold”, the pKd (MPDZ_3, O75970; [1]) was “below the threshold” and the pKd (MLLT4, P55196; [1]) was “below the threshold”. The pKd (GRIP2_2, Q9C0E4; [1]) was “below the threshold”, the pKd (GIPC3, Q8TF64; [1]) was “below the threshold” and the pKd (USH1C_3, Q9Y6N9; [1]) was “below the threshold”. For the same binder, the pKd (MPDZ_2, O75970; [1]) was “below the threshold”, the pKd (LMO7, Q8WWI1; [1]) was “below the threshold” and the pKd (LNX1_4, Q8TBB1; [1]) was “below the threshold”. The pKd (MAGI1_4, Q96QZ7; [1]) was “below the threshold” and the pKd (CARD14, Q9BXL6; [1]) was “below the threshold”.

For RRVRKLPSTTL [RPS6KA1_-3P, Q15418], the pKd (PDZD4, Q76G19; [2]) was “below the threshold”, the pKd (TJP3_1, O95049; [2]) was “below the threshold” and the pKd (GRIP1_1, Q9Y3R0; [2]) was “below the threshold”. The pKd (CNKSR3, Q6P9H4; [2]) was “below the threshold”, the pKd (MPDZ_6, O75970; [2]) was “below the threshold” and the pKd (Inadl_7, Q8NI35; [2]) was “below the threshold”. The pKd (DVL2, O14641; [2]) was “below the threshold”, the pKd (GIPC1, O14908; [2]) was “below the threshold” and the pKd (PDZD7_2, Q9H5P4; [2]) was 3.49. For the same binder, the pKd (PTPN4, P29074; [2]) was 3.54, the pKd (APBA3_2, O96018; [2]) was “below the threshold” and the pKd (LNX2_4, Q8N448; [2]) was “below the threshold”. The pKd (MPDZ_3, O75970; [2]) was “below the threshold”, the pKd (MLLT4, P55196; [2]) was “below the threshold” and the pKd (GRIP2_2, Q9C0E4; [2]) was “below the threshold”. The pKd (GIPC3, Q8TF64; [2]) was “below the threshold”, the pKd (USH1C_3, Q9Y6N9; [2]) was “below the threshold” and the pKd (MPDZ_2, O75970; [2]) was “below the threshold”. For the same binder, the pKd (LMO7, Q8WWI1; [2]) was “below the threshold”, the pKd (LNX1_4, Q8TBB1; [2]) was “below the threshold” and the pKd (MAGI1_4, Q96QZ7; [2]) was “below the threshold”. For the same binder, the pKd (CARD14, Q9BXL6; [2]) was “below the threshold”.

In the case of DEDQHTQITKV [PTEN_Ac, P60484], the pKd (PDZD4, Q76G19; [3]) is reported as “below the threshold”, the pKd (TJP3_1, O95049; [3]) is reported as “below the threshold” and the pKd (LIMK1, P53667; [3]) is reported as “below the threshold”. The pKd (MPDZ_6, O75970; [3]) was “below the threshold”, the pKd (Inadl_7, Q8NI35; [3]) was 4.2 and the pKd (GIPC1, O14908; [3]) was “below the threshold”. For the same binder, the pKd (PTPN4, P29074; [3]) was “below the threshold”, the pKd (APBA3_2, O96018; [3]) was “below the threshold” and the pKd (LNX2_4, Q8N448; [3]) was “below the threshold”. For the same binder, the pKd (MPDZ_3, O75970; [3]) was “below the threshold” and the pKd (MPDZ_2, O75970; [3]) was 4.3.
